Laboratory results reported in publication PMC11339910 (Journal of molecular biology, 2024).

Target: IL-13 (UniProt P35225)
Assay: SPR

IL-13, sequence (P35225 35-143): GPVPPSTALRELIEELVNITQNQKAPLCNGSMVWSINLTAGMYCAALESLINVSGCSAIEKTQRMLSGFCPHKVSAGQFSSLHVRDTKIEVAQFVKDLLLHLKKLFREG

B1: Fab region of tralokinumab (Fab, V domains shown)
VH: QVQLVQSGAEVKKPGASVKVSCKASGYTFTNYGLSWVRQAPGQGLEWMGWISANNGDTNYGQEFQGRVTMTTDTSTSTAYMELRSLRSDDTAVYYCARDSSSSWARWFFDLWGRGTLVTVSS
VL: SYVLTQPPSVSVAPGKTARITCGGNIIGSKLVHWYQQKPGQAPVLVIYDDGDRPSGIPERFSGSNSGNTATLTISRVEAGDEADYYCQVWDTGSDPVVFGGGTKLTVL
Q: Does B1 bind?
A: binds
